# Data published in the RNAGym collection of RNA variant scans (doi:10.7554/elife.80360).
# B1: HDV Ribozyme (parent)
# chain: GGCCGGCAUGGUCCCAGCCUCCUCGCUGGCGCCGGCUGGGCAACAUUCCGAGGGGACCGUCCCCUCGGUAAUGGCGAAUGGGACCCA
# Variants of: B1
# Test: self-cleavage, relative activity (ratio to wild type); higher = more cleavage; co-transcriptional
row,Variant,self-cleavage
1,G11A C58G,0.415
2,G11A C58U,0.322
3,G11C C57A,0.453
4,G11C C57U,0.388
5,G11C C57G,0.249
6,G11C C63A,0.314
7,G11C C63G,0.434
8,G11A U37G,0.142
9,G11C A78C,0.0369
10,G11C A71C,0.306
11,G11C A71U,0.252
12,G10U U79C,0.0615
13,G11C G25C,0.0475
14,G11C G25U,0
15,G11C G25A,0.0449
16,G11A A83C,0.0707
17,G11C A83U,0.119
18,G11C A42G,0.161
19,G11C A42U,0.0536
20,G11A A43U,0.198
21,G11A A43C,0.106

row,Variant,self-cleavage
1,G11C G74C,0
2,G11C G74U,0.0963
3,G11C G59U,0.35
4,G11C G59C,0.415
5,G11C G35C,0.151
6,G11C C21A,0.0755
7,G11U C21G,0.086
8,G11A A77U,0.109
9,G11A C44G,0
10,G11A C44U,0.0723
11,G11C G55U,0.305
12,G11C G55C,0.228
13,G11U C75A,0.0231
14,G11U C75G,0.0264
15,G11U C30A,0.128
16,G11A G39C,0
17,G11A G39U,0.0989
18,G11U C63A,0.228
19,G11U C63U,0.364
20,G11C C86G,0.312
21,G11A C63U,0.376

row,Variant,self-cleavage
1,G11C C48G,0.399
2,G11C C48U,0.119
3,G11A A56U,0.487
4,G11U C14A,0.0707
5,G11U C62G,0.151
6,G11U C62A,0.487
7,G11C U20G,0
8,G11C U20A,0.0978
9,G11A C24A,0.126
10,G11A C24G,0.0747
11,G11A C24U,0.194
12,G11C A51C,0.35
13,G11C G82C,0.287
14,G11C G82U,0.104
15,G11C G31C,0.0791
16,G11C G31U,0.0482
17,G11A A51U,0.468
18,G11A A51G,0.374
19,G11C G50C,0.365
20,G11U G40A,0.387
21,G11A C61A,0.379

row,Variant,self-cleavage
1,G11C C19G,0.0811
2,G11C C19A,0.0314
3,G11C C19U,0.0302
4,G11U G53C,0.284
5,G11U G53U,0.385
6,G11A G55C,0.396
7,G11A G55U,0.328
8,G11C G81A,0
9,G11A G40C,0.0623
10,G11A A70C,0.175
11,G11A A16C,0.35
12,G11A A16G,0.323
13,G11C C58U,0.242
14,G11C C58A,0.378
15,G11C C24G,0.0583
16,G11C C24A,0.0898
17,G11C C24U,0.219
18,G11C U12A,0
19,G11C U12C,0.145
20,G11C U12G,0.123
21,G11A C85A,0.735
